Reference: publication PMC2649420
Like-named read-outs stand apart in the source and are kept apart here.

What was measured:
Experiment in all cases: SPR
[1] = target: Sbi-III-IV (amino acids 150-266), domains III and IV of Sbi (S. aureus strain Mu50) (UniProt Q99RL2)
[2] = target: Sbi-IV (amino acids 197-266), domain IV of Sbi (S. aureus strain Mu50) (UniProt Q99RL2)
[3] = target: Sbi-III-IV (amino acids 150-266), domains III and IV of Sbi (S. aureus strain Mu50) (UniProt Q99RL2); remark: listed apart in the source

Substance: C3dg, recombinant (from UniProt P01024 955-1303) (domain or fragment)
- Kd [1]: 1400 nM
- Kd [2]: 800 nM
- Kd [3]: 700 nM
